B1: ZER1 (parent)
chain: PILRLLPQGISPVSQHWATWALYN
B2: POMT2 (parent)
chain: YHEAPMTRKHYQVTGYGINGTGDS

Variants of: B1
Assay: protein stability index of a GFP-peptide fusion (GPS, HEK-293T) (PSI 1-6); higher = more stable
Conditions: c terminus: a fixed tail appended
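Further: lentivirally expressed fusions sorted by FACS into six bins by GFP to DsRed ratio, PSI derived from sequencing read proportions per bin multiplied by bin number.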

Variant	protein stability index
PILRLLPHGISPVSQHWATWALYN [Q8H]	1.5
PIYRLLPQGISPVSQHWATWALYN [L3Y]	1.06

Variants of: B2
Assay: as above
Conditions: c terminus: a fixed tail appended

Variant	protein stability index
YHNAPMTRKHYQVTGYGINGTGDS [E3N]	2.38
YHDAPMTRKHYQVTGYGINGTGDS [E3D]	2.15
YHGAPMTRKHYQVTGYGINGTGDS [E3G]	2.75
YHMAPMTRKHYQVTGYGINGTGDS [E3M]	1.67
YHCAPMTRKHYQVTGYGINGTGDS [E3C]	2
YHIAPMTRKHYQVTGYGINGTGDS [E3I]	1.73
YHSAPMTRKHYQVTGYGINGTGDS [E3S]	1.6
YHRAPMTRKHYQVTGYGINGTGDS [E3R]	1.47
YHPAPMTRKHYQVTGYGINGTGDS [E3P]	2.87
YHQAPMTRKHYQVTGYGINGTGDS [E3Q]	1.34
YHFAPMTRKHYQVTGYGINGTGDS [E3F]	1.52
YHTAPMTRKHYQVTGYGINGTGDS [E3T]	2.32
YHHAPMTRKHYQVTGYGINGTGDS [E3H]	1.77
YHAAPMTRKHYQVTGYGINGTGDS [E3A]	2.46
YHWAPMTRKHYQVTGYGINGTGDS [E3W]	1.44
YHKAPMTRKHYQVTGYGINGTGDS [E3K]	1.9
YHVAPMTRKHYQVTGYGINGTGDS [E3V]	2.22
YHYAPMTRKHYQVTGYGINGTGDS [E3Y]	1.77
YHLAPMTRKHYQVTGYGINGTGDS [E3L]	1.61
YHEWPMTRKHYQVTGYGINGTGDS [A4W]	2.2
YHEPPMTRKHYQVTGYGINGTGDS [A4P]	1.96
YHEYPMTRKHYQVTGYGINGTGDS [A4Y]	3.11
YHETPMTRKHYQVTGYGINGTGDS [A4T]	2.21

Variant	protein stability index
YHERPMTRKHYQVTGYGINGTGDS [A4R]	2.45
YHEEPMTRKHYQVTGYGINGTGDS [A4E]	2.93
YHEGPMTRKHYQVTGYGINGTGDS [A4G]	2.37
YHEQPMTRKHYQVTGYGINGTGDS [A4Q]	2.68
YHEDPMTRKHYQVTGYGINGTGDS [A4D]	2.95
YHEVPMTRKHYQVTGYGINGTGDS [A4V]	2.96
YHECPMTRKHYQVTGYGINGTGDS [A4C]	2.5
YHEMPMTRKHYQVTGYGINGTGDS [A4M]	1.49
YHENPMTRKHYQVTGYGINGTGDS [A4N]	1.69
YHESPMTRKHYQVTGYGINGTGDS [A4S]	1.92
YHELPMTRKHYQVTGYGINGTGDS [A4L]	1.91
YHEKPMTRKHYQVTGYGINGTGDS [A4K]	2.18
YHEIPMTRKHYQVTGYGINGTGDS [A4I]	2.42
YHEHPMTRKHYQVTGYGINGTGDS [A4H]	2.04
YHEFPMTRKHYQVTGYGINGTGDS [A4F]	2.68
YHEAGMTRKHYQVTGYGINGTGDS [P5G]	2.51
YHEANMTRKHYQVTGYGINGTGDS [P5N]	2.32
YHEADMTRKHYQVTGYGINGTGDS [P5D]	2.72
YHEAAMTRKHYQVTGYGINGTGDS [P5A]	2.62
YHEACMTRKHYQVTGYGINGTGDS [P5C]	2.31
YHEASMTRKHYQVTGYGINGTGDS [P5S]	2.69
YHEAQMTRKHYQVTGYGINGTGDS [P5Q]	2.84
YHEALMTRKHYQVTGYGINGTGDS [P5L]	1.89

Variant	protein stability index
YHEAFMTRKHYQVTGYGINGTGDS [P5F]	2.77
YHEAHMTRKHYQVTGYGINGTGDS [P5H]	2.74
YHEAKMTRKHYQVTGYGINGTGDS [P5K]	2.36
YHEAEMTRKHYQVTGYGINGTGDS [P5E]	3.17
YHEAIMTRKHYQVTGYGINGTGDS [P5I]	3.27
YHEAMMTRKHYQVTGYGINGTGDS [P5M]	2.79
YHEATMTRKHYQVTGYGINGTGDS [P5T]	2.02
YHEARMTRKHYQVTGYGINGTGDS [P5R]	2.29
YWEAPMTRKHYQVTGYGINGTGDS [H2W]	2.72
YSEAPMTRKHYQVTGYGINGTGDS [H2S]	3.39
YQEAPMTRKHYQVTGYGINGTGDS [H2Q]	3.33
YIEAPMTRKHYQVTGYGINGTGDS [H2I]	2.21
YYEAPMTRKHYQVTGYGINGTGDS [H2Y]	2.75
YAEAPMTRKHYQVTGYGINGTGDS [H2A]	2.56
YMEAPMTRKHYQVTGYGINGTGDS [H2M]	3.09
YGEAPMTRKHYQVTGYGINGTGDS [H2G]	2.92
YLEAPMTRKHYQVTGYGINGTGDS [H2L]	3.07
YNEAPMTRKHYQVTGYGINGTGDS [H2N]	3.5
YVEAPMTRKHYQVTGYGINGTGDS [H2V]	1.89
YTEAPMTRKHYQVTGYGINGTGDS [H2T]	2.58
YCEAPMTRKHYQVTGYGINGTGDS [H2C]	1.97
YPEAPMTRKHYQVTGYGINGTGDS [H2P]	2.99
YEEAPMTRKHYQVTGYGINGTGDS [H2E]	3.95

Variant	protein stability index
YFEAPMTRKHYQVTGYGINGTGDS [H2F]	3.38
YREAPMTRKHYQVTGYGINGTGDS [H2R]	3.81
YKEAPMTRKHYQVTGYGINGTGDS [H2K]	3.57
YDEAPMTRKHYQVTGYGINGTGDS [H2D]	3.98
KHEAPMTRKHYQVTGYGINGTGDS [Y1K]	3.97
SHEAPMTRKHYQVTGYGINGTGDS [Y1S]	3.68
HHEAPMTRKHYQVTGYGINGTGDS [Y1H]	3.58
LHEAPMTRKHYQVTGYGINGTGDS [Y1L]	3.47
PHEAPMTRKHYQVTGYGINGTGDS [Y1P]	4.07
NHEAPMTRKHYQVTGYGINGTGDS [Y1N]	3.5
IHEAPMTRKHYQVTGYGINGTGDS [Y1I]	4.03
VHEAPMTRKHYQVTGYGINGTGDS [Y1V]	3.49
FHEAPMTRKHYQVTGYGINGTGDS [Y1F]	1.89
CHEAPMTRKHYQVTGYGINGTGDS [Y1C]	3.05
AHEAPMTRKHYQVTGYGINGTGDS [Y1A]	3.68
MHEAPMTRKHYQVTGYGINGTGDS [Y1M]	3.71
EHEAPMTRKHYQVTGYGINGTGDS [Y1E]	4.3
THEAPMTRKHYQVTGYGINGTGDS [Y1T]	3.91
QHEAPMTRKHYQVTGYGINGTGDS [Y1Q]	3.9
GHEAPMTRKHYQVTGYGINGTGDS [Y1G]	3.53
WHEAPMTRKHYQVTGYGINGTGDS [Y1W]	3.72
DHEAPMTRKHYQVTGYGINGTGDS [Y1D]	3.94
RHEAPMTRKHYQVTGYGINGTGDS [Y1R]	3.51

Source: the supplement of paper PMC10567573
